This assay concerns the target KPNA4 (UniProt O00629). Put plainly: pull-down/IP from co-transfected cells. Conditions: reference: IRF3 wild type; sites S97.

On to IRF3 (from UniProt Q14653) IRF3 S97A, for which the “binding against the reference” value was “stronger”.

The record behind these values is paper PMC10889005.
